The values below come from paper PMC12346298, “Structures of MmpL complexes reveal the assembly and mechanism of this family of transporters” (Science Advances, 2025).

In general, stoichiometry N refers to a count of units in the complex or per binding partner.

The target of test [1] is mycobacterial membrane protein large 5 (MmpL5) transporter, M. smegmatis (M. smegmatis) (UniProt A0QS80). In words: cryo-EM structure; particle class 2 (tripartite trimeric AcpM-MmpL5-MmpS5 complex) from the same LMNG-solubilized crude membrane sample; Build and Retrieve processing; 2.81 Å.
Test [2] shares this target. The test can be described thus: cryo-EM structure; particle class 3 (dipartite trimeric AcpM-MmpL5 complex) from the same LMNG-solubilized crude membrane sample; Build and Retrieve processing; 3.37 Å.
The target in test [3] is T1, mycobacterial membrane protein large 5 (MmpL5) transporter, M. smegmatis (M. smegmatis, UniProt A0QS80 1-967).
T1 construct: MmpL5 of Mycobacterium smegmatis, gene MSMEG_1382 cloned into pBUN250; 12 TM helices, periplasmic subdomains PD1-PD3 (PD3 = residues 499-684); Seen as a monomer (in 2D arrays) and as a homotrimer in different particle classes of one sample; Residues 493-702 are not modelled in 9MX0, residues 499-655 not in 9MW0; also called MSMEG_1382; source: M. smegmatis MC2-155, coexpressed with MmpS5 from …
T1 sequence (looked up): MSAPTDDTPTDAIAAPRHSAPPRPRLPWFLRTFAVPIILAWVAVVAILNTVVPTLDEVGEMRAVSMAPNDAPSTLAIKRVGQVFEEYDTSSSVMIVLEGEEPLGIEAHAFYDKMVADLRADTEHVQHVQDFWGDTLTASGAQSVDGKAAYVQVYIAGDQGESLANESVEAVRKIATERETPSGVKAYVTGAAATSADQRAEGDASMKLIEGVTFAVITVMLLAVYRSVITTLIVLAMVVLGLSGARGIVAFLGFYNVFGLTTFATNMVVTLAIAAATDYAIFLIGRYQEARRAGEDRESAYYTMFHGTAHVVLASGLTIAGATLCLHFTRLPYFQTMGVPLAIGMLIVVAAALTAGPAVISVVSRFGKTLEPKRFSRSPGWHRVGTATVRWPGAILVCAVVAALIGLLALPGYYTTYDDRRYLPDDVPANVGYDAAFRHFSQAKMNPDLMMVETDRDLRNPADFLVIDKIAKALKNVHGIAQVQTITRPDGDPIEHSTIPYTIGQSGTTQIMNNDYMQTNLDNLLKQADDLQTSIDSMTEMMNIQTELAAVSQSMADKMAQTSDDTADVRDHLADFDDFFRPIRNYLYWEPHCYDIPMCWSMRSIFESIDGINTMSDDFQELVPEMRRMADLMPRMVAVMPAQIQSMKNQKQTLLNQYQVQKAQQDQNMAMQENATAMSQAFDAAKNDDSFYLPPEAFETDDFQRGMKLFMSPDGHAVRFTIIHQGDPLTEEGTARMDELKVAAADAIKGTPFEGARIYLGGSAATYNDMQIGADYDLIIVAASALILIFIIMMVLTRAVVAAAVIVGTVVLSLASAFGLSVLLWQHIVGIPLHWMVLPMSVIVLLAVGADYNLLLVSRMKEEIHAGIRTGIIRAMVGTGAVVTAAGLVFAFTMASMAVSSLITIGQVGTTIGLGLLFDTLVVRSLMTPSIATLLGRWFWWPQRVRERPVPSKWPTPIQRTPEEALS
The test can be described thus: cryo-EM structure; particle class 1 (2D arrays of monomeric AcpM-MmpL5 units) from LMNG-solubilized crude M. smegmatis membranes enriched by sucrose cushion; Build and Retrieve processing; 3.35 Å. As to conditions: partners not purified.

Test [4] addresses T1, mycobacterial membrane protein large 5 …. In words: cryo-EM structure; particle class 2 (tripartite trimeric AcpM-MmpL5-MmpS5 complex) from the same LMNG-solubilized crude membrane sample; Build and Retrieve processing; 2.81 Å. The note with it: partners not purified.

With “MmpS5 adaptor protein, M. smegmatis (natural protein)”, in test [1], the stoichiometry N (MmpS5:MmpL5 (3:3)) was 1.
On to “mycobacterial membrane protein large 5 (MmpL5) transporter, M. smegmatis (from UniProt A0QS80 1-967) (natural protein)”, for which the stoichiometry N in test [1] and in test [2] was 3 each time.

B1: meromycolate extension acyl carrier protein M (AcpM), M. smegmatis (natural protein, UniProt A0R0B3 1-99, looked up)
chain: MAATQEEIIAGLAEIIEEVTGIEPSEVTPEKSFVDDLDIDSLSMVEIAVQTEDKYGVKIPDEDLAGLRTVGDVVAYIQKLEEENPEAAAALREKFAADQ
notes: AcpM, cytosolic meromycolate extension acyl carrier protein of Mycobacterium smegmatis, not overexpressed; identified in the cryo-EM maps and by proteomics; four-helix bundle, 82 C-alpha atoms compared; Came with MmpL5 from the host cells; source: endogenous, M. smegmatis MC2-155; detergent-solubilized (LMNG) crude membranes, enriched by sucrose cushion centrifugation
Consider B1, for which the “stoichiometry N” value in test [3] was 1 AcpM:MmpL5 (1:1); in test [4] it was 1 AcpM:MmpL5 (3:3).
